Experimental data as given in PMC12592476 (2025).
Each block holds one binder with its values, some of them ahead of it.

Legend:
[1] = target: T1, F-actin (rabbit skeletal α-actin, polymerized) (rabbit, UniProt P68135 1-377); test: ADP-F-actin
[2] = target: T1, F-actin (rabbit skeletal α-actin, …); test: ADP-BeF3- F-actin
[3] = target: T1, F-actin (rabbit skeletal α-actin, …); test: ADP-F-actin (- BeF3-)
[4] = target: T2, bovine brain Arp2/3 complex (bovine, UniProt P61157 1-418; A7MB62 1-394; Q58CQ2 1-372; Q3MHR7 1-300; Q3T035 1-178; Q148J6 …); test: ITC; ATP-bound Arp2/3 complex
[5] = target: T2, bovine brain Arp2/3 complex; test: ITC; ADP-bound Arp2/3 complex

Kd [1]: 11 µM
B1: human Coro7 β2 (domain or fragment)
chain: KFRHAQGTVLHRDSHITNLKGLNLTTPGESDGFCANKLRVAVPLLSSGGQVAVLELRKPGRLPDTALPTLQNGAAVTDLAWDPFDPHRLAVAGEDARIRLWRVPAEGLEEVLTTPETVLTGHTEKICSLRFHPLAANVLASSSYDLTVRIWDLQAGADRLKLQGHQDQIFSLAWSPDGQQLATVCKDGRVRVYRPRSGPEPLQEGPGPKGGRGARIVWVCDGRCLLVSGFDSQSERQLLLYEAEALAGGPLAVLGLDVAPSTLLPSYDPDTGLVLLTGKGDTRVFLYELLPESPFFLECNSFTSPDPHKGLVLLPKTECDVREVELMRCLRLRQSSLEPVAFRLPRVRKEFFQDDVFPDTAVIWEPVLSAEAWLQGANGQPWLLSLQPPDMS

Kd [1]: 5.2 µM
B2: human Coro7 β1β2 (domain or fragment)
chain: MNRFRVSKFRHTEARPPRRESWISDIRAGTAPSCRNHIKSSCSLIAFNSDRPGVLGIVPLQGQGEDKRRVAHLGCHSDLVTDLDFSPFDDFLLATGSADRTVKLWRLPGPGQALPSAPGVVLGPEDLPVEVLQFHPTSDGILVSAAGTTVKVWDAAKQQPLTELAAHGDLVQSAVWSRDGALVGTACKDKQLRIFDPRTKPRASQSTQAHENSRDSRLAWMGTWEHLVSTGFNQMREREVKLWDTRFFSSALASLTLDTSLGCLVPLLDPDSGLLVLAGKGERQLYCYEVVPQQPALSPVTQCVLESVLRGAALVPRQALAVMSCEVLRVLQLSDTAIVPIGYHVPRKAVEFHEDLFPDTAGCVPATDPHSWWAGDNQQVQKVSLNPACRPHPSFTSCLVPPAEPLPDTAQPAVMETPVGDADASEGFSSPPSSLTSPSTPSSLGPSLSSTSGIGTSPSLRSLQSLLGPSSKFRHAQGTVLHRDSHITNLKGLNLTTPGESDGFCANKLRVAVPLLSSGGQVAVLELRKPGRLPDTALPTLQNGAAVTDLAWDPFDPHRLAVAGEDARIRLWRVPAEGLEEVLTTPETVLTGHTEKICSLRFHPLAANVLASSSYDLTVRIWDLQAGADRLKLQGHQDQIFSLAWSPDGQQLATVCKDGRVRVYRPRSGPEPLQEGPGPKGGRGARIVWVCDGRCLLVSGFDSQSERQLLLYEAEALAGGPLAVLGLDVAPSTLLPSYDPDTGLVLLTGKGDTRVFLYELLPESPFFLECNSFTSPDPHKGLVLLPKTECDVREVELMRCLRLRQSSLEPVAFRLPRVRKEFFQDDVFPDTAVIWEPVLSAEAWLQGANGQPWLLSLQPPDMS

Kd [2]: 37.4 µM
Kd [3]: 9.9 µM
Kd [1]: 9.9 µM
B3: human Coro7 full length (Coro7 FL) (natural protein)
chain: MNRFRVSKFRHTEARPPRRESWISDIRAGTAPSCRNHIKSSCSLIAFNSDRPGVLGIVPLQGQGEDKRRVAHLGCHSDLVTDLDFSPFDDFLLATGSADRTVKLWRLPGPGQALPSAPGVVLGPEDLPVEVLQFHPTSDGILVSAAGTTVKVWDAAKQQPLTELAAHGDLVQSAVWSRDGALVGTACKDKQLRIFDPRTKPRASQSTQAHENSRDSRLAWMGTWEHLVSTGFNQMREREVKLWDTRFFSSALASLTLDTSLGCLVPLLDPDSGLLVLAGKGERQLYCYEVVPQQPALSPVTQCVLESVLRGAALVPRQALAVMSCEVLRVLQLSDTAIVPIGYHVPRKAVEFHEDLFPDTAGCVPATDPHSWWAGDNQQVQKVSLNPACRPHPSFTSCLVPPAEPLPDTAQPAVMETPVGDADASEGFSSPPSSLTSPSTPSSLGPSLSSTSGIGTSPSLRSLQSLLGPSSKFRHAQGTVLHRDSHITNLKGLNLTTPGESDGFCANKLRVAVPLLSSGGQVAVLELRKPGRLPDTALPTLQNGAAVTDLAWDPFDPHRLAVAGEDARIRLWRVPAEGLEEVLTTPETVLTGHTEKICSLRFHPLAANVLASSSYDLTVRIWDLQAGADRLKLQGHQDQIFSLAWSPDGQQLATVCKDGRVRVYRPRSGPEPLQEGPGPKGGRGARIVWVCDGRCLLVSGFDSQSERQLLLYEAEALAGGPLAVLGLDVAPSTLLPSYDPDTGLVLLTGKGDTRVFLYELLPESPFFLECNSFTSPDPHKGLVLLPKTECDVREVELMRCLRLRQSSLEPVAFRLPRVRKEFFQDDVFPDTAVIWEPVLSAEAWLQGANGQPWLLSLQPPDMSPVSQAPREAPARRAPSSAQYLEEKSDQQKKEELLNAMVAKLGNREDPLPQDSFEGVDEDEWD

Kd [4]: 1.9 µM
Kd [5]: 0.9 µM
Binder: SDQQKKEELLNAMVAKLGNREDPLPQDSFEGVDEDEWD (domain or fragment) [human Coro7 CA (C-terminal Central-Acidic region of coronin 7)]

Kd [1]: 5.5 µM
B4: human Coro7 β1 (domain or fragment)
chain: MNRFRVSKFRHTEARPPRRESWISDIRAGTAPSCRNHIKSSCSLIAFNSDRPGVLGIVPLQGQGEDKRRVAHLGCHSDLVTDLDFSPFDDFLLATGSADRTVKLWRLPGPGQALPSAPGVVLGPEDLPVEVLQFHPTSDGILVSAAGTTVKVWDAAKQQPLTELAAHGDLVQSAVWSRDGALVGTACKDKQLRIFDPRTKPRASQSTQAHENSRDSRLAWMGTWEHLVSTGFNQMREREVKLWDTRFFSSALASLTLDTSLGCLVPLLDPDSGLLVLAGKGERQLYCYEVVPQQPALSPVTQCVLESVLRGAALVPRQALAVMSCEVLRVLQLSDTAIVPIGYHVPRKAVEFHEDLFPDTAGCVPATDPHSWWAGDNQQVQKVSLNPACRPHPSFTSCLV
